Literature values as cited in paper PMC8006918.
Where two headings read alike, the source gives them in different places.

Columns and labels:
[1] = target: Tenascin-C (Homo sapiens) (UniProt P24821)
[2] = target: Tenascin-C (Homo sapiens) (UniProt P24821); remark: listed apart in the source
[3] = target: Tenascin-C (Homo sapiens) (UniProt P24821); remark: listed apart in the source

Chain of Tenascin-C (Homo sapiens) (P24821 23-2201): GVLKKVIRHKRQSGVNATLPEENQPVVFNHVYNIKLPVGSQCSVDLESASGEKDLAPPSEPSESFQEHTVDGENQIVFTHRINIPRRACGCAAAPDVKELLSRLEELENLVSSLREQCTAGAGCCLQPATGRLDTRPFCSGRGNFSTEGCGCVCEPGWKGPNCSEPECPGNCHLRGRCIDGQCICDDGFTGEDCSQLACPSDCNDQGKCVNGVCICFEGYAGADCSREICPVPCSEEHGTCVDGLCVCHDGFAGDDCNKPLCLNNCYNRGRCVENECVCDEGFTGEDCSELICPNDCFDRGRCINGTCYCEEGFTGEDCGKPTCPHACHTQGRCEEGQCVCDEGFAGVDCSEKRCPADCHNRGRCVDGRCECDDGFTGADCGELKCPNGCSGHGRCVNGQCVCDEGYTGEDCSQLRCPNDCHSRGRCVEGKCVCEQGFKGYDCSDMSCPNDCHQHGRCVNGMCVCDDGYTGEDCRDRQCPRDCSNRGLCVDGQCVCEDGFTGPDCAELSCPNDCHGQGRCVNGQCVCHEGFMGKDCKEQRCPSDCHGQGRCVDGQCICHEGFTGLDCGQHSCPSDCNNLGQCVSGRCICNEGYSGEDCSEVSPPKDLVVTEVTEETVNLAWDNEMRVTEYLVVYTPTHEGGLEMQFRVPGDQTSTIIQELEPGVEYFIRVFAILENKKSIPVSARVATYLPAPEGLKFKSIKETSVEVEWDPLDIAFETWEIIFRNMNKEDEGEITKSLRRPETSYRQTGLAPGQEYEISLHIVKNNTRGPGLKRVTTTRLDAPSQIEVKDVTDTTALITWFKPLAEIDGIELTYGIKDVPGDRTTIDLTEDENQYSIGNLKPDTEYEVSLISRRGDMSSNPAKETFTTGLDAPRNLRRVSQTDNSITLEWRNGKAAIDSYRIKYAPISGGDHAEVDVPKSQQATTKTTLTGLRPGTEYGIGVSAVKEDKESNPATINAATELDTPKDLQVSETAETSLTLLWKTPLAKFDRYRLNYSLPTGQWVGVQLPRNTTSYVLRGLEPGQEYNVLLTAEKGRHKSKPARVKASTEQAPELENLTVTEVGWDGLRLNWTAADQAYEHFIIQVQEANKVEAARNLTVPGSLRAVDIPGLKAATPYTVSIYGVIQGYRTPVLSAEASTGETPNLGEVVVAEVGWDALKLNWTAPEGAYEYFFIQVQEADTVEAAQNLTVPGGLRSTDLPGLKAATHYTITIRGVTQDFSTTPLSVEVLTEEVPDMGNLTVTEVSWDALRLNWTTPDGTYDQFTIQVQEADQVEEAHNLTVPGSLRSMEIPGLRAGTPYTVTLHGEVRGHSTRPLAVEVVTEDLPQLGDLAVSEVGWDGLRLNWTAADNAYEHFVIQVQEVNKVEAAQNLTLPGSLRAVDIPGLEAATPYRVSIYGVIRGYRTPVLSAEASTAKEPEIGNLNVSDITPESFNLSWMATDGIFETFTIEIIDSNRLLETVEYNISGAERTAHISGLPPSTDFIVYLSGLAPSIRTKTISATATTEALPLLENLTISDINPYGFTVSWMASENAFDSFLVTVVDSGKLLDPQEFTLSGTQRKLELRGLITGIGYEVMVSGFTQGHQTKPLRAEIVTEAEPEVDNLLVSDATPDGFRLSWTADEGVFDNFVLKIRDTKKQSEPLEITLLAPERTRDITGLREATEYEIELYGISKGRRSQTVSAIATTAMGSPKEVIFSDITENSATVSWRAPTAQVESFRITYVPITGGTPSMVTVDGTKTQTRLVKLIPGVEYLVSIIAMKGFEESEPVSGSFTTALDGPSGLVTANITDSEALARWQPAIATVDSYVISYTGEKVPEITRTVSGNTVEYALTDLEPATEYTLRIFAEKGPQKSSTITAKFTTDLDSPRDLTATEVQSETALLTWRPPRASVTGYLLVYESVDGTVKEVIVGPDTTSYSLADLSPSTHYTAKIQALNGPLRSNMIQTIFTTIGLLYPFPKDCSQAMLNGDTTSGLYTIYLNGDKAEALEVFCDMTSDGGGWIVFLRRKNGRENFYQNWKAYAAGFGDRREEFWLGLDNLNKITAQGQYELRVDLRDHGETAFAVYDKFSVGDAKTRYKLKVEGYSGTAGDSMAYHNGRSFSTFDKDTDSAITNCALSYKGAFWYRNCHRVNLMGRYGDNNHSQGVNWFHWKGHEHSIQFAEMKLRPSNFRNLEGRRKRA
Chain of CCL21 (O00585 24-134): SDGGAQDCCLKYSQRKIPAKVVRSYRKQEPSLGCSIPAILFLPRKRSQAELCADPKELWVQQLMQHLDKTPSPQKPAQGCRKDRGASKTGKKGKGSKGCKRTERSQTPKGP
Chain of Fibronectin FN III13 (P02751 1904-1992): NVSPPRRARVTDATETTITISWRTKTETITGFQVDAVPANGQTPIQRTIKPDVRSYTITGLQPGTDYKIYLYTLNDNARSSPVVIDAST
Chain of TGF-β1 (P01137 279-390): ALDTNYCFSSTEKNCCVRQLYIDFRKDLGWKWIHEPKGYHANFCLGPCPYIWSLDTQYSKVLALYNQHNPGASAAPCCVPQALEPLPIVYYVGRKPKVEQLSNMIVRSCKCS

CCL21 (from UniProt O00585)
Kd [1]: 58 nM

Fibronectin FN III13 (from UniProt P02751)
Kd [2]: 128 nM

TGF-β1 (from UniProt P01137)
Kd [3]: 20.3 nM
